Holding throughout (type): cell-based
In experiment [1] the test system is human embryonic stem cells (BG01). In words: Polymerase chain reaction for cell lineage markers during differentiation into cardiomyocytes. To be noted: 15th day, treated 5th to 15th day; FGFs 10 ng/ml, ascorbic acid 200 μg/ml; vs control group.
Source text: (§1) In order to investigate the effect of FGF2 on differentiation by cardiomyocyte type, mature differentiation of cardiomyocytes, and differentiation of vascular smooth muscle cells, the expression of a cardiomyocyte marker (cTnT), mature cardiomyocyte marker (cTnI), ventricular cardiomyocyte marker (MLC2v), atrial cardiomyocyte markers (MLC2a, ANP), nodal cardiomyocyte markers (HCN4, TBX18), vascular smooth muscle cell markers (SMA, SM22), and vascular endothelial cell marker (CD31) in the control group and the group treated with 10 ng/ml FGF2 for 10 days from the 5th day to the 15th day during the differentiation of human embryonic stem cells (BG01) into cardiomyocytes was determined through polymerase chain reaction using primers for each cell lineage marker.
as §1, with “of FGF10” for “of FGF2”, “of the” for “of a”, “ng/ml FGF10” for “ng/ml FGF2”
as §1, with “of ascorbic acid” for “of FGF2”, “of the” for “of a”, “with 200 μg/ml ascorbic acid” for “with 10 ng/ml FGF2”
as §1, with “of FGF4” for “of FGF2”, “of the” for “of a”, “ng/ml FGF4” for “ng/ml FGF2”

In experiment [2] the test system is human embryonic stem cells (BG01 cell line). The experiment is described as follows: Morphology and beating of cardiomyocytes differentiated from stem cells (optical microscope). To be noted: FGFs 10 ng/ml, ascorbic acid 200 μg/ml; for day of differentiation on which beating cardiomyocytes were observed: control group 9th day; for cell morphology: treatment from 5th to 15th day of differentiation, vs control group. On the procedure:
In order to increase the differentiation efficiency of stem cells into cardiomyocytes and to improve differentiation by cardiomyocyte type and mature differentiation, conditions for monolayer differentiation of human embryonic stem cells (BG01 cell line) into cardiomyocytes were established.
An E8 culture medium (STEMCELL Technologies) containing a 2 μM ROCK inhibitor (thiazovivin) was added to a 6-well culture plate coated with Matrigel, and embryonic stem cells dissociated into single cells using Accutase were seeded at 2.5×10^5 cells per well. Culture was carried out for about 3 days, and the E8 culture medium was exchanged until confluence of the 6-well culture plate with the cells. When confluence of the 6-well plate with the human embryonic stem cells was achieved, CHIR99021 (Sigma-Aldrich) as a GSK-3 inhibitor was added at a concentration of 6 μM to a CDM3 culture medium (containing RPMI 1640, serum albumin and ascorbic acid as three chemically verified components, P. W. Burridge et al., Nature Methods 11:855, 2014), followed by culture for 24 hours. Then, on the 2nd day of differentiation, 5 μM IWP2 (Inhibitor of Wnt Production 2) was added to the medium, followed by culture for 2 days. After addition of 10 ng/ml FGF2, 10 ng/ml FGF4, 10 ng/ml FGF10, 200 μg/ml ascorbic acid, and 10 ng/ml FGF4+200 μg/ml ascorbic acid on the 5th day of differentiation, culture was carried out until the 15th day of differentiation while the culture medium was exchanged every 48 hours with an RPMI+B27(-Insulin) medium (FIG. 1a).

Experiment [3] has as its system human embryonic stem cells (BG01). In words: Immunofluorescence staining of cardiomyocyte type markers. To be noted: 10 ng/ml FGF4 or 10 ng/ml FGF4+200 μg/ml ascorbic acid. As to the method: In order to investigate the effect of treatment with FGF4 alone and co-treatment with FGF4+ascorbic acid on type-specific differentiation and mature differentiation of human embryonic stem cells into cardiomyocytes, differences in expression of the cardiomyocyte marker (cTnT), ventricular cardiomyocyte marker (MLC2v), and atrial cardiomyocyte marker (MLC2a) after treatment with 10 ng/ml FGF4 or co-treatment with 10 ng/ml FGF4+200 μg/ml ascorbic acid for 10 days from the 5th day to the 15th day during the differentiation of human embryonic stem cells (BG01) into cardiomyocytes was confirmed through immunofluorescence staining (FIG. 7).

The test system of experiment [4] is human embryonic stem cells. In words: FGF4 concentration series, polymerase chain reaction for MLC2v, MLC2a, TBX18, SMA. As to the method:
In order to determine the appropriate concentration of FGF4 on the increase in gene expression of the ventricular cardiomyocyte marker (MLC2v), atrial cardiomyocyte marker (MLC2a), nodal cardiomyocyte marker (TBX18), and vascular smooth muscle cell marker (SMA) from human embryonic stem cells, after treatment with FGF4 at various concentrations for 10 days from the 5th day to the 15th day of differentiation, polymerase chain reaction was performed using primers for MLC2v, MLC2a, TBX18, and SMA.

“FGF2: FGF2, maturation factor compared at 10 ng/ml”: in experiment [1], the “expression of atrial cardiomyocyte marker ANP (mRNA)” value is listed as “significantly increased”, the “expression of mature cardiomyocyte marker cTnI (mRNA)” value is given as “no effect”, the “expression of nodal cardiomyocyte marker HCN4 (mRNA)” value is given as “significantly decreased” and the “expression of nodal cardiomyocyte marker TBX18 (mRNA)” value was “significantly decreased”. In experiment [1], the “expression of vascular endothelial cell marker CD31 (mRNA)” value is “significantly increased”, the “expression of vascular smooth muscle cell marker SM22 (mRNA)” value is recorded as “significantly decreased”, the “expression of vascular smooth muscle cell marker SMA (mRNA)” value is on record as “significantly decreased” and the “expression of ventricular cardiomyocyte marker MLC2v (mRNA)” value is “no effect”. Besides, in experiment [2], the “day of differentiation on which beating cardiomyocytes were observed” value (“day of differentiation” for short) came to 9 days and the cell morphology result was “morphological changes similar to the control group”.

For `O=C1O[C@H]([C@@H](O)CO)C(O)=C1O` [ascorbic acid, reference compound], in experiment [1], the “expression of atrial cardiomyocyte marker ANP (mRNA)” value is listed as “significantly increased”, the “expression of atrial cardiomyocyte marker MLC2a (mRNA)” value is “significantly increased”, the “expression of cardiomyocyte marker cTnT (mRNA)” value was “significantly increased” and the “expression of mature cardiomyocyte marker cTnI (mRNA)” value is reported as “significantly increased”. Also, in experiment [1], the “expression of nodal cardiomyocyte marker HCN4 (mRNA)” value was “significantly decreased”, the “expression of nodal cardiomyocyte marker TBX18 (mRNA)” value was “significantly decreased”, the “expression of vascular smooth muscle cell marker SM22 (mRNA)” value is listed as “significantly decreased” and the “expression of vascular smooth muscle cell marker SMA (mRNA)” value is “significantly decreased”. Besides, the “expression of ventricular cardiomyocyte marker MLC2v (mRNA)” value in experiment [1] is recorded as “significantly increased”. For the same molecule, in experiment [2], the “day of differentiation” value is 9 days and the cell morphology entry is “relatively flat morphology”.

B1: FGF10: FGF10, maturation factor compared at 10 ng/ml (protein, UniProt O15520 38-208, looked up)
Fibroblast growth factor 10: QALGQDMVSPEATNSSSSSFSSPSSAGRHVRSYNHLQGDVRWRKLFSFTKYFLKIEKNGKVSGTKKENCPYSILEITSVEIGVVAVKAINSNYYLAMNKKGKLYGSKEFNNDCKLKERIEENGYNTYASFNWQHNGRQMYVALNGKGAPRRGQKTRRKNTSAHFLPMVVHS
Regarding B1, in experiment [1], the “expression of atrial cardiomyocyte marker MLC2a (mRNA)” value is recorded as “significantly increased”, the “expression of mature cardiomyocyte marker cTnI (mRNA)” value is recorded as “no effect”, the “expression of nodal cardiomyocyte marker HCN4 (mRNA)” value is “significantly increased” and the “expression of nodal cardiomyocyte marker TBX18 (mRNA)” value is “significantly increased”. For the same molecule, in experiment [1], the “expression of vascular smooth muscle cell marker SMA (mRNA)” value is given as “significantly increased” and the “expression of ventricular cardiomyocyte marker MLC2v (mRNA)” value is “no effect”. Besides, in experiment [2], the “day of differentiation” value was found to be 9 days and the cell morphology entry is on record as “morphological changes similar to the control group”.

B2: FGF4: fibroblast growth factor 4 (FGF4), maturation factor added to the differentiation medium (protein, UniProt P08620 31-206, looked up)
Fibroblast growth factor 4: APTAPNGTLEAELERRWESLVALSLARLPVAAQPKEAAVQSGAGDYLLGIKRLRRLYCNVGIGFHLQALPDGRIGGAHADTRDSLLELSPVERGVVSIFGVASRFFVAMSSKGKLYGSPFFTDECTFKEILLPNNYNAYESYKYPGMFIALSKNGKTKKGNRVSPTMKVTHFLPRL
B2: in experiment [1], the “expression of atrial cardiomyocyte marker ANP (mRNA)” value is “significantly increased”, the “expression of atrial cardiomyocyte marker MLC2a (mRNA)” value is listed as “significantly increased”, the “expression of mature cardiomyocyte marker cTnI (mRNA)” value is “significantly increased” and the “expression of nodal cardiomyocyte marker HCN4 (mRNA)” value is given as “significantly decreased”. Besides, in experiment [1], the “expression of nodal cardiomyocyte marker TBX18 (mRNA)” value was “significantly decreased”, the “expression of vascular smooth muscle cell marker SM22 (mRNA)” value was “significantly decreased”, the “expression of vascular smooth muscle cell marker SMA (mRNA)” value is given as “significantly decreased” and the “expression of ventricular cardiomyocyte marker MLC2v (mRNA)” value is “significantly increased”. In addition, the “morphology of cardiomyocytes (immunostaining)” value in experiment [3] (5th to 15th day, compared to control group) is “agglomerated and thickened morphology”. In experiment [3] (control group also positive), the “atrial cardiomyocyte marker MLC2a (immunostaining)” value is “positive reaction”. Moreover, in experiment [3] (in the thickened cells, 5th to 15th day), the “expression of ventricular cardiomyocyte marker MLC2v (immunostaining)” value was “increased”. Besides, in experiment [4] (5 ng/ml FGF4, 5th to 15th day), the “gene expression of atrial cardiomyocyte type marker MLC2a” value was “started to increase”, the “gene expression of nodal cardiomyocyte marker TBX18” value is recorded as “significantly decreased”, the “gene expression of vascular smooth muscle cell marker SMA” value is on record as “significantly decrease” and the “gene expression of ventricular cardiomyocyte type marker MLC2v” value was “started to increase”. Besides, in experiment [4] (10 ng/ml FGF4, 5th to 15th day), the “gene expression of atrial cardiomyocyte type marker MLC2a” value is “highest”, the “gene expression of nodal cardiomyocyte marker TBX18” value is given as “significantly decreased”, the “gene expression of vascular smooth muscle cell marker SMA” value is listed as “significantly decrease” and the “gene expression of ventricular cardiomyocyte type marker MLC2v” value is given as “highest”. Further, in experiment [4] (25 ng/ml FGF4, 5th to 15th day), the “gene expression of atrial cardiomyocyte type marker MLC2a” value is “highest”, the “gene expression of nodal cardiomyocyte marker TBX18” value was “significantly decreased”, the “gene expression of vascular smooth muscle cell marker SMA” value was “significantly decrease” and the “gene expression of ventricular cardiomyocyte type marker MLC2v” value is recorded as “highest”. In experiment [4] (50 ng/ml FGF4, 5th to 15th day), the “gene expression of atrial cardiomyocyte type marker MLC2a” value is “observed to increase” and the “gene expression of ventricular cardiomyocyte type marker MLC2v” value is listed as “observed to increase”. Further, the “gene expression of nodal cardiomyocyte marker TBX18” value in experiment [4] (100 ng/ml FGF4, 5th to 15th day) was “significantly decreased”. Moreover, in experiment [2], the “day of differentiation” value worked out at 9 days and the cell morphology entry is on record as “formed in a thickened structure”.

These data come from patent US20240084259A1, “STEM CELL-DERIVED MATURE CARDIOMYOCYTES AND CARDIOVASCULAR DISEASE MODEL USING SAME” (KOREA UNIVERSITY RESEARCH AND BUSINESS FOUNDATION, priority 2019, published 2024).
